Data as given in patent US6673896.

Target: T4 glycoprotein (human T cell surface protein T4) (human) (UniProt P01730)
Test: cell-based or functional assay

OKT4A monoclonal antibody
VSV PSEUDOTYPE TITER, VSV(AIDS) +αT4A, CEM(T4+) cells: 200 PFU/ml | VSV PSEUDOTYPE TITER, VSV(AIDS) +αT4A, HSB2-T4+ cells: 300 PFU/ml | VSV PSEUDOTYPE TITER, VSV(AIDS) +αT4A, HeLa-T4+ cells: 200 PFU/ml | VSV PSEUDOTYPE TITER, VSV(AIDS) +αT4A, Raji-T4+ cells: 150 PFU/ml
